Results as given in paper PMC12609799, “Novel Dual-Coenzyme Specificity and Thermostability of Malate Dehydrogenase Identified in the Cyanobacterium Microcystis aeruginosa PCC7806” (International Journal of Molecular Sciences, 2025).

Legend:
[1] = substrate: NC(=O)C1=CN([C@@H]2O[C@H](COP(=O)(O)OP(=O)(O)OC[C@H]3O[C@@H](n4cnc5c(N)ncnc54)[C@H](O)[C@@H]3O)[C@@H](O)[C@H]2O)C=CC1; assay: purified protein; type: biochemical, Microcystis aeruginosa; settings: oxaloacetate reduction, 100 mM Tris-HCl pH 8.0, 25 °C, apparent, varied: cofactor
[2] = substrate: NC(=O)C1=CN([C@@H]2O[C@H](COP(=O)(O)OP(=O)(O)OC[C@H]3O[C@@H](n4cnc5c(N)ncnc54)[C@H](OP(=O)(O)O)[C@@H]3O)[C@@H](O)[C@H]2O)C=CC1; assay: purified protein; type: biochemical, Microcystis aeruginosa; settings: oxaloacetate reduction, 100 mM Tris-HCl pH 8.0, 25 °C, apparent, varied: cofactor

B1: MaMDH (Ma7806MDH) (Microcystis aeruginosa PCC 7806SL) (protein)
chain: MVDFYDTLIPCQSPRVSVIGAGNVGRTLAQRIAEKNLADVVLLDIVHGLPQGIALDLMEAQGIELHDSEIIGTNNYEDTAGSDIVVITAGLARKPGMSRDDLMNVNAKIVVEAATKCLKYSPEAIFIVITNPLDVMTYLVWQATGLPPQRVMGMAGVLDSSRLQTFIAMELGVSTADVHAMVLGGHGDLMLPLPRYCTVSGVPITELMDEITINRLVERTRNGGAEIVKLLQTGGAYYAPASSACTMVETILRNQSRLLPAAAYLKGEYGLQDVYLGVPCRLGCRGVESILEVRLTDAERLDLHTSAASVRQNVHLALDSLKVLM
Km [1]: 33.140 ± 0.95 µM
kcat [1]: 31.7 ± 1.43 s⁻¹
kcat/Km [1]: 956000 M⁻¹ s⁻¹
Km [2]: 113.200 ± 3.46 µM
kcat [2]: 8.71 ± 1.45 s⁻¹
kcat/Km [2]: 77000 M⁻¹ s⁻¹
